Reference: patent US20210009686A1

Experiments:
[1] = target: claudin 18.1 (CLDN18.1) (human) (UniProt P56856); test: in-cell ELISA, hybridoma supernatant on HEK293-CLDN18.1 cells
[2] = target: claudin 18.1 (CLDN18.1) (human) (UniProt P56856); test: FACS, hybridoma supernatant on HEK293-CLDN18.1

Sequence of claudin 18.1 (CLDN18.1) (human) (P56856 whole entry): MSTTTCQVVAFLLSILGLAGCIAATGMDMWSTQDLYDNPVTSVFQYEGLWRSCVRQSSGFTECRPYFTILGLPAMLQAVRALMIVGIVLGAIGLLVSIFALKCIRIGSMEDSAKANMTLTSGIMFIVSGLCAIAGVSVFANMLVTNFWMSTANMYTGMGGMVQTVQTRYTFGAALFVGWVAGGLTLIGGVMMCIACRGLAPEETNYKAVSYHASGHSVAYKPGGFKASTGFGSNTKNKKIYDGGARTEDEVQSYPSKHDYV

B1: hybridoma clone 10-L9-A (antibody, V domains shown)
VH: EVQLVESGGGLVKPGGSRKLSCAASGFTFSDYGMHWVRQAPEKGLEWIAYINSGSSTIYYADTVKGRFTISRDNAKNTLFLQMTSLRSEDTAMFYCARFARGNVLDYWGQGTSVTVSS
VL: DIVMTQSPSSLTVTAGEKVTMSCRSSQSLLNSGNQRNYLTWYQQKPGHPPKLLIYWASTRESGVPDRFTGSGSGTDFTLTISGVQAEDLAVYYCQNGYSYPLTFGAGTKLEVK
OD450/µg IgG [1]: 0.62 OD450/µg IgG | MFI [2]: 14300
